# Experimental data: patent USRE43497 (FRAUNHOFER GESELLSCHAFT ZUR FORDERUNG DER ANGEWANDTEN …, dated 2012)
# B1: p27^Kip1 (other, UniProt P46414 1-197, looked up)
# chain: MSNVRVSNGSPSLERMDARQAEHPKPSACRNLFGPVNHEELTRDLEKHCRDMEEASQRKWNFDFQNHKPLEGRYEWQEVERGSLPEFYYRPPRPPKSACKVLAQESQDVSGSRQAVPLIGSQANSEDRHLVDQMPDSSDNPAGLAEQCPGMRKRPAAEDSSSQNKRANRTEENVSDGSPNAGTVEQTPKKPGLRRQT
# B2: Ser^57 Ser^60 MIF (50-65) peptide (peptide)
# peptide: FGGSSEPSALSSLHSI
# notes: also called analogue of the MIF (50-65) peptide with the two Cys residues substituted for Ser
# B3: MIF (50-65) peptide (peptide)
# peptide: FGGSSEPCALCSLHSI
# notes: 16 residues, positions 50-65 of wildtype MIF; also called MIF peptide (50-65); Cys60-spanning 16 residue MIF peptide
# Experiments:
# [1] = target: T1, Recombinant human MIF (macrophage migration inhibitory factor) (human, UniProt P14174 2-115); test: assay not described
# T1 construct: Used soluble (1 uM in TNT lysates); also called rMIF; rwtMIF
# T1 sequence (P14174 2-115 limits assumed): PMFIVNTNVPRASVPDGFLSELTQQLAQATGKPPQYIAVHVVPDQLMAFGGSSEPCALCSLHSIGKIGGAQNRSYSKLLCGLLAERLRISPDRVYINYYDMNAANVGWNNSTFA
# [2] = target: T2, biotin-labelled Jab1 (in vitro translated) (human, UniProt Q92905 2-334, biotin-labelled during in vitro translation (Transcend non-radioactive translation detection system); positions not stated); test: competition with wildtype MIF for biotin-Jab1 in TNT reticulocyte lysate
# T2 construct: also called biotin-Jab1; biotin-labelled p38^Jab1
# T2 sequence (Q92905 2-334 limits assumed): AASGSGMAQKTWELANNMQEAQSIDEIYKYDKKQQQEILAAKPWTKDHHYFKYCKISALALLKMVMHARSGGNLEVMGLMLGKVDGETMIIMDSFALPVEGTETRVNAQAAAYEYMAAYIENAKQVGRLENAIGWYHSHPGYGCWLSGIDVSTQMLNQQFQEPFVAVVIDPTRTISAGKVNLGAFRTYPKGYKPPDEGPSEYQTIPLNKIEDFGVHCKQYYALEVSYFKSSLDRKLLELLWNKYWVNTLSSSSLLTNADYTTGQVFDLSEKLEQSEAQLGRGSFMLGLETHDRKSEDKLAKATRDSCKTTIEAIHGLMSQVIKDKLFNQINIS
binder,measurement,setting,value
B1,binding result,[1],no binding
B2,binding result,[2],binds
B3,binding result,[2],binds
